Results from patent US10005817.

Target: PTH receptor (PTHR1) (human) (UniProt Q03431)
Test: cell-based or functional assay

PTH receptor (PTHR1) (human), sequence (Q03431 27-593): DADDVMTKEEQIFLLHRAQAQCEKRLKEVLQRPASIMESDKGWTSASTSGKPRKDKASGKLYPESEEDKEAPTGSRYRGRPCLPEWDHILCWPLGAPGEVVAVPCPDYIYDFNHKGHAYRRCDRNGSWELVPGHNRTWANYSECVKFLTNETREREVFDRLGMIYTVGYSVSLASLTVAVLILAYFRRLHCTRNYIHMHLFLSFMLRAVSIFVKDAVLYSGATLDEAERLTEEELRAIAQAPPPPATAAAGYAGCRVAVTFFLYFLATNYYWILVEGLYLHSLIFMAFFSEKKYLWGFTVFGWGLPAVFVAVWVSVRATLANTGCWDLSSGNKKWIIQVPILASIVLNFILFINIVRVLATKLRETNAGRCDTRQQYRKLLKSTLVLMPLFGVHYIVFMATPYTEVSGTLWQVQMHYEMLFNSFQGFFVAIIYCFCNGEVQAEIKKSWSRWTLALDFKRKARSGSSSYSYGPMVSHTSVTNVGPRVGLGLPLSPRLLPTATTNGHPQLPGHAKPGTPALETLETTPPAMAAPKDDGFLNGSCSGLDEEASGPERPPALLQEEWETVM

PTH (internal standard) (ligand)
maximal response: 105%
